Data from patent US12365738B2, “Method of treating an interleukin-11-associated or -mediated fibrotic disease or condition by administering an anti-interleukin-11 receptor subunit alpha (IL-11RA) antibody” (Lassen Therapeutics, Inc., priority 2021, dated 2025).
Residue numbers refer to the chain shown, from its start. Names may count otherwise.

T1: hIL-11Rα (Homo sapiens, UniProt Q14626)
T1 sequence (Q14626 23-422): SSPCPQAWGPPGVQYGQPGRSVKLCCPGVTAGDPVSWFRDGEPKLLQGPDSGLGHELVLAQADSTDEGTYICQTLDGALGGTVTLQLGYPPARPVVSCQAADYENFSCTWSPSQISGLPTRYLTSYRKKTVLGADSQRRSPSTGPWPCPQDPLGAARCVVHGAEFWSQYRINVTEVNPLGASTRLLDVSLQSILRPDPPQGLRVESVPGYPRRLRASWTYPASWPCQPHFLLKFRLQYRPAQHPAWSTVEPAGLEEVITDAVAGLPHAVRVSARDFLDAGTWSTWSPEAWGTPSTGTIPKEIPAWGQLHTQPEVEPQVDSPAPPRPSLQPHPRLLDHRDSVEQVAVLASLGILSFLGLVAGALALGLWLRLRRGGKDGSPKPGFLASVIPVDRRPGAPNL

T2: hIL-11R (Homo sapiens, UniProt Q14626)
T2 sequence (Q14626 23-422): T1 sequence (Q14626 23-422)

B1: mAb14: anti-IL-11Rα antibody, human IgG4 (S228P), kappa; VH SEQ ID NO: 219, VL SEQ ID NO: 220 (antibody, V domains shown)
VH: EVQLLESGGGLVQPGGSLRLSCAASGFTFSWYSMTWVRQAPGKGLEWVSSIVPYGDLTQYAESVKGRFTISRDNSKNTLYLQMNSLRAEDTAVYYCAKGPGWGSFDLWGRGTLVTVSS
VL: DIQMTQSPSSLSASVGDRVTITCQASQDINNYLNWYQQKPGKAPKLLIYDASNLQTGVPSRFSGSGSGTDFTFTISSLQPEDIATYYCQQHESQSPTFGPGTKVDIK
modifications: IgG4 S228P kappa constant regions; mAb14 VH Chain; mAb14 VL Chain
B2: mAb6: anti-IL-11Rα antibody, human IgG4 (S228P), kappa; VH SEQ ID NO: 203, VL SEQ ID NO: 204 (antibody, V domains shown)
VH: B1 VH with E62D
VL: B1 VL with S93F
modifications: human IgG4 S228P and kappa constant regions; mAb6 VH Chain; mAb6 VL Chain
B3: mAb7: anti-IL-11Rα antibody, human IgG4 (S228P), kappa; VH SEQ ID NO: 205, VL SEQ ID NO: 206 (antibody, V domains shown)
VH: B1 VH with W31N, S33A, T35S, E62D
VL: B1 VL
modifications: human IgG4 S228P and kappa constant regions; mAb7 VH Chain; mAb7 VL Chain
B4: mAb15: anti-IL-11Rα antibody, human IgG4 (S228P), kappa; VH SEQ ID NO: 221, VL SEQ ID NO: 222 (antibody, V domains shown)
VH: B1 VH with E62D
VL: B1 VL with S93T, S95T
modifications: IgG4 S228P kappa constant regions; mAb15 VH Chain; mAb15 VL Chain
B5: mAb9: anti-IL-11Rα antibody, human IgG4 (S228P), kappa; VH SEQ ID NO: 209, VL SEQ ID NO: 210 (antibody, V domains shown)
VH: B1 VH with S50G, E62D
VL: B1 VL
modifications: human IgG4 S228P and kappa constant regions; mAb9 VH Chain; mAb9 VL Chain
B6: mAb13: anti-IL-11Rα antibody, human IgG4 (S228P), kappa; VH SEQ ID NO: 217, VL SEQ ID NO: 218 (antibody, V domains shown)
VH: B1 VH with E62D, G99P, P100E, G101D, S104R
VL: B1 VL
modifications: IgG4 S228P kappa constant regions; mAb13 VH Chain; mAb13 VL Chain
B7: mAb8: anti-IL-11Rα antibody, human IgG4 (S228P), kappa; VH SEQ ID NO: 207, VL SEQ ID NO: 208 (antibody, V domains shown)
VH: B1 VH with W31S, S33A, T35S, E62D
VL: B1 VL
modifications: human IgG4 S228P and kappa constant regions; mAb8 VH Chain; mAb8 VL Chain
B8: mAb10: anti-IL-11Rα antibody, human IgG4 (S228P), kappa; VH SEQ ID NO: 211, VL SEQ ID NO: 212 (antibody, V domains shown)
VH: B1 VH with P53A, E62D
VL: B1 VL
modifications: IgG4 S228P kappa constant regions; mAb10 VH Chain; mAb10 VL Chain
B9: mAb18: anti-IL-11Rα antibody, human IgG4 (S228P), kappa; VH SEQ ID NO: 227, VL SEQ ID NO: 228 (antibody, V domains shown)
VH: B1 VH with W31E, E62D
VL: B1 VL
modifications: IgG4 S228P kappa constant regions; mAb18 VH Chain; mAb18 VL Chain
B10: mAb17: anti-IL-11Rα antibody, human IgG4 (S228P), kappa; VH SEQ ID NO: 225, VL SEQ ID NO: 226 (antibody, V domains shown)
VH: B1 VH with W31D, E62D
VL: B1 VL
modifications: IgG4 S228P kappa constant regions; mAb17 VH Chain; mAb17 VL Chain
B11: mAb16: anti-IL-11Rα antibody, human IgG4 (S228P), kappa; VH SEQ ID NO: 223, VL SEQ ID NO: 224 (antibody, V domains shown)
VH: B1 VH with W31A, E62D
VL: B1 VL
modifications: IgG4 S228P kappa constant regions; mAb16 VH Chain; mAb16 VL Chain
B12: mAb32: anti-IL-11Rα antibody, human IgG4 (S228P), kappa; VH SEQ ID NO: 255, VL SEQ ID NO: 256 (antibody, V domains shown)
VH: B1 VH with W31Y, E62D
VL: B1 VL
modifications: IgG4 S228P kappa constant regions; mAb32 VH Chain; mAb32 VL Chain
B13: mAb19: anti-IL-11Rα antibody, human IgG4 (S228P), kappa; VH SEQ ID NO: 229, VL SEQ ID NO: 230 (antibody, V domains shown)
VH: B1 VH with W31F, E62D
VL: B1 VL
modifications: IgG4 S228P kappa constant regions; mAb19 VH Chain; mAb19 VL Chain

target: T1, hIL-11Rα; assay: Kinetic binding analysis by biolayer interferometry (protein G biosensors, Octet RED96e); settings: not given
Protocol: Association was carried out in the presence of a 2-fold dilution series of hIL-11Rα and was allowed to proceed for 120 seconds; dissociation was measured for 300 to 1200 seconds.

ka	kd	Molecule
33700 M⁻¹ s⁻¹	<1e-07 s⁻¹	B1
800000 M⁻¹ s⁻¹	<1e-07 s⁻¹	B2
63500 M⁻¹ s⁻¹	<1e-07 s⁻¹	B3
84000 M⁻¹ s⁻¹	<1e-07 s⁻¹	B4
62200 M⁻¹ s⁻¹	<1e-07 s⁻¹	B5
66700 M⁻¹ s⁻¹	<1e-07 s⁻¹	B6
65100 M⁻¹ s⁻¹	<1e-07 s⁻¹	B7
840000 M⁻¹ s⁻¹	0.000416 s⁻¹	B8

system: IL-11 signaling (STAT3 Reporter (Luciferase)-HEK293 cell line); assay: Cell-based STAT3 reporter (luciferase) HEK293 assay for inhibiting IL-11 signaling; design: species or system human; settings: not given
Protocol: Further testing of the lead mAbs was carried out using a cell-based reporter assay. IL-11 is reported to signal through the STAT3 and ERK pathways. Therefore, a STAT3 reporter cell line in which firefly luciferase gene expression is driven by STAT3 response elements located upstream of a minimal TATA promoter was selected to analyze mAb functional activity. In these cells, IL-11 can activate the endogenous STAT3 allowing it to bind to the STAT3 response elements, inducing transcription of the luciferase reporter gene and resulting in readily detectable luciferase expression. Antibodies to IL-11R which block IL-11 signaling should inhibit expression of IL-11 driven luciferase in these cells.
The STAT3 Reporter (Luciferase)—HEK293 cell line (BPS Bioscience, catalog #79800-P) was grown, passaged, and assayed as per manufacturer's protocols. Cells were added at 25,000 cells per well in a 96-well microtiter dish and incubated at 37° C. for 30-45 min. in 5% CO2 humidified air. Anti-IL-11R mAbs were added as a 3-fold dilution series in duplicate columns or rows, and plates were returned to the incubator for an additional 1 h at 37° C. after which 40 ng/mL IL-11 was added to each well to initiate the signal transduction cascade and luciferase production. Plates were incubated for 18-24 hours at 37° C. and luciferase was detected using a One-Step Luciferase Assay System (BPS Bioscience, cat. no. 60690-1) as per manufacturer's instructions.

Molecule	potency at inhibiting IL-11 signaling relative to TS7 / 8E2 (in words)
B1	comparable in potency to TS7
B2	variable
B3	less potent than TS7
B4	comparable in potency to TS7
B5	more potent at inhibiting IL-11 signaling than either of TS7 or 8E2
B6	more potent at inhibiting IL-11 signaling than either of TS7 or 8E2
B7	less potent than TS7
B8	less potent than TS7

target: T2, hIL-11R; assay: Alternate biolayer interferometry assay (AHC biosensors) ranking mAbs 16-32 against mAb5; type: binding; settings: compared to mAb5 (comparator)
Description: A further series of antibodies were designed in which the residue at Kabat position 31 of the heavy chain was varied (mAbs 16-32). In this case an alternate biolayer interferometry assay was used to initially rank the antibodies compared to mAb5, the closest relative in sequence to mAbs 16-32. MAbs were loaded onto anti-human constant domain (AHC) biosensors (FortéBio) in 10×kinetics buffer consisting of PBS, 0.1% BSA, 0.02% polysorbate 20 (TWEEN™) for 120 s to achieve a spectral shift value of 0.8 to 1.2 nm. Association was carried out in the presence of 2-fold dilution series of hIL-11R and was allowed to proceed for 120 s. Dilution series started 10 nM. The dissociation in 10×kinetics buffer for 1200 s. Binding kinetic measurements were taken on an Octet RED96e instrument.

qualitative assessment	Molecule
decreased	B9
decreased	B10
similar	B11
similar	B12
similar	B13
